From US20260015420A1 (CENTESSA PHARMACEUTICALS UK, published 2026)

Tests used:
[1] = target: T1, human CD47-Fc (human, UniProt Q08722 19-139); test: direct ELISA, coated human CD47-Fc, OD450
T1 construct: also called hCD47; human CD47-Fc protein; not shown: Fc part

[2] = target: T1, human CD47-Fc; test: competition ELISA: human CD47-Fc binding to plate-bound human SIRPa-Fc, % binding
[3] = target: T1, human CD47-Fc; test: direct ELISA, coated human CD47-Fc, OD450 [D00009 FIG. 6C; D00010 FIG. 6E; D00011 FIG. 6G]
[4] = target: T1, human CD47-Fc; test: HTRF competition with labelled h5F9G4 IgG1 (m11) for human CD47-Fc, 665/615 ratio
[5] = target: T1, human CD47-Fc; test: HTRF epitope competition; competitor Tb-labelled h5F9G4 IgG1 on biotinylated human CD47-Fc
[6] = target: T2, cynomolgus monkey CD47-Fc (cynomolgus monkey, UniProt Q08722 19-139 (human entry), limits assumed); test: competition ELISA: cyno CD47-Fc binding to plate-bound human SIRPa-Fc, OD450
T2 construct: also called cCD47; cyno CD47-Fc; not shown: Fc part
T2 chain: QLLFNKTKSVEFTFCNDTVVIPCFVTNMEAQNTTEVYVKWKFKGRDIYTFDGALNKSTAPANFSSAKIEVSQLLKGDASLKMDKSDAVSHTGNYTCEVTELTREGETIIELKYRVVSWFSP

[7] = target: T2, cynomolgus monkey CD47-Fc; test: competition ELISA: cyno CD47-Fc binding to plate-bound human SIRPa-Fc, % binding
[8] = target: T2, cynomolgus monkey CD47-Fc; test: direct ELISA, coated cyno CD47-Fc, OD450 [D00009 FIG. 6D; D00010 FIG. 6F; D00011 FIG. 6H]
[9] = target: T1, human CD47-Fc; test: HTRF competition with labelled h5F9G4 IgG1 (m11) for human CD47-Fc, 665/615 ratio; remark: listed apart in the source
[10] = target: T2, cynomolgus monkey CD47-Fc; test: HTRF epitope competition; competitor Tb-labelled h5F9G4 IgG1 on biotinylated cyno CD47-Fc
[11] = target: T3, human CD47 on cells (human CD47-transfected CHO-K1 cells; HL60; Jurkat) (human, UniProt Q08722 19-323); test: flow cytometry, human CD47-transfected CHO-K1 cells, 100-0.024 µg/ml
T3 construct: CHO-K1 cells stably transfected with human CD47 full-length cDNA; also endogenous CD47 of the human AML line HL60 and of Jurkat cells; also called human CD47+ cells; human CD47+CHO-K1

[12] = target: T2, cynomolgus monkey CD47-Fc; test: HTRF competition with labelled h5F9G4 IgG1 (m11) for cyno CD47-Fc, normalised 665/615 ratio
[13] = target: T1, human CD47-Fc; test: competition ELISA: human CD47-Fc binding to plate-bound human SIRPa-Fc, OD450
[14] = target: T1, human CD47-Fc; test: HTRF competition with labelled h5F9G4 IgG1 (m11) for human CD47-Fc, normalised 665/615 ratio
[15] = target: T4, cynomolgus monkey CD47 on cyno CD47-transfected CHO-K1 cells (cynomolgus monkey, UniProt Q08722 19-323 (human entry)); test: flow cytometry, cyno CD47-transfected CHO-K1 cells, 100-0.024 µg/ml
T4 construct: CHO-K1 cells stably transfected with cyno CD47 full-length cDNA; also called cyno CD47+ cells; cyno CD47+CHO-K1
T4 chain: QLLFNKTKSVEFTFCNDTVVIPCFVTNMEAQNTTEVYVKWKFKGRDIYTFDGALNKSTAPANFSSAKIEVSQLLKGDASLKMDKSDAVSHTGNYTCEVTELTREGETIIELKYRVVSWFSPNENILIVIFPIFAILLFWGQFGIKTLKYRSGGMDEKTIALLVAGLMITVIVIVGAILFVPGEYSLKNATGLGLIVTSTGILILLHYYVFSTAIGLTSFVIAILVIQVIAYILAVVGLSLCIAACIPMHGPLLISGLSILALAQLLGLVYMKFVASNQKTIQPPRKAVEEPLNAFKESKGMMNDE

EC50 (read off the curve) [1]: ~0.04 µg/mL | IC50 (read off the curve) [2]: ~0.3 µg/mL | EC50 (read off the curve) [3]: ~0.07 µg/mL | IC50 (read off the curve) [4]: ~0.05 µg/mL | IC50 [5]: 0.601 µg/mL | IC50 (read off the curve) [6]: ~3 nM | IC50 (read off the curve) [7]: ~0.2 µg/mL | EC50 (read off the curve) [8]: ~0.06 µg/mL | IC50 (read off the curve) [9]: ~0.05 µg/mL | IC50 [10]: 0.809 µg/mL | maximum MFI over background on untransfected CHO-K1 (fold) [11]: > 50 fold | IC50 (read off the curve) [12]: ~0.1 µg/mL | IC50 (read off the curve) [13]: ~1 nM | IC50 (read off the curve) [14]: ~0.3 µg/mL | maximum MFI over background on untransfected CHO-K1 (fold) [15]: > 50 fold
B1: chimeric anti-CD47 m5F9G4, human IgG1null (antibody, V domains shown)
VH: QVQLQQPGAELVKPGASVMMSCKASGYTFTNYNMHWVKQTPGQGLEWIGTIYPGNDDTSYNQKFKDKATLTADKSSSAAYMQLSSLTSEDSAVYYCARGGYRAMDYWGQGTSVTVSS
VL: DVLMTQTPLSLPVSLGDQASISCRSSQSIVYSNGNTYLGWYLQKPGQSPKLLIYKVSNRFSGVPDRFSGSGSGTDFTLKISRVEAEDLGVYHCFQGSHVPYTFGGGTKVEIK
notes: Murine v-domains on human IgG1null (IgG1 with L234A/L235A/G237A), kappa; also called m5F9G4 IgG1; m59G4
